This assay has as its target EpCAM (Epithelial Cell Adhesion Molecule) (UniProt P16422). The assay is described as follows: binding to EpCAM-expressing cells; method not stated.

EpCAM (Epithelial Cell Adhesion Molecule), sequence (P16422 24-314 limits assumed): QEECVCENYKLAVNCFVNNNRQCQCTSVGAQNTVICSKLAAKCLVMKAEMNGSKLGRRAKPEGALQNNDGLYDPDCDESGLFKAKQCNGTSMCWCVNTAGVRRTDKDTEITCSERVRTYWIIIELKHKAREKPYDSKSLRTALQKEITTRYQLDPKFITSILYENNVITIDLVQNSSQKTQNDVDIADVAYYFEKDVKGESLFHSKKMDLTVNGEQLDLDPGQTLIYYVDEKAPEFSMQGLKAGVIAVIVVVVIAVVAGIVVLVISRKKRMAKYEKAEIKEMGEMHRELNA

For HEA125 antibody, the Kd (in general, the constant that tells how readily two partners part at equilibrium) stood at 2.2 nM.

Values taken from patent publication US20180044681A1.
